# Source: PMC10490071
# Legend:
# Assay in all cases: SEC-MALS + native gel or EMSA; static light scattering (DynaPro, Wyatt) after Superdex 200, 100 uL at >1 mg/mL in 10 mM PBS pH 7.4, flow 0.45 mL/min, LS, UV and dRI detection; 10% native-PAGE, 1 umol protein loaded; oligomeric state in solution
# [1] = biological target: rFIP-nha N5+39A double glycosylation mutant, expressed in P. pastoris (Nectria haematococca)
# [2] = biological target: rFIP-nha N5A glycosylation mutant, expressed in P. pastoris (Nectria haematococca)
# [3] = biological target: rFIP-nha N39A glycosylation mutant, expressed in P. pastoris (Nectria haematococca)
# [4] = biological target: rFIP-nha wild-type (fungal immunomodulatory protein from Nectria haematococca), expressed in P. pastoris (Nectria haematococca)
substance,measurement,setting,value
"rFIP-nha N5+39A double glycosylation mutant, expressed in P. pastoris (natural protein)",stoichiometry N,[1],4
"rFIP-nha N5A glycosylation mutant, expressed in P. pastoris (natural protein)",stoichiometry N,[2],4
"rFIP-nha N39A glycosylation mutant, expressed in P. pastoris (natural protein)",stoichiometry N,[3],4
"rFIP-nha wild-type (fungal immunomodulatory protein from Nectria haematococca), expressed in P. pastoris (natural protein)",stoichiometry N,[4],4
